Laboratory results as given in the DeepSol protein solubility set.

Assay: soluble on expression in E. coli; label from the status in PepcDB or PDB records

Sequence | soluble on expression in E. coli
MAKNHYDILRRHIRSEDLLETPEFGSGSRIVEEYWIQEPFTKAIIVENEDEFRNVYYALEPTVSSEEAEVISALYDDLKKILVLQDVSVDLEERAEVLVRAIEKLSKEYAVSFTDNFYSRMLYYLFRDFFGYGLIDPLMEDTNVEDISCDGYNIPIFIYHQKYGNVETNIVLDQEKLDRMVLRLTQRSGKHISIANPIVDATLPDGSRLQATFGTEVTPRGSSFTIRKFTIEPLTPIDLIEKGTVPSGVLAYLWLAIEHKFSAIVVGETASGKTTTLNAIMMFIPPDAKVVSIEDTREIKLYHENWIAEVTRTGMGEGEIDMYDLLRAALRQRPDYIIVGEVRGREAQTLFQAMSTGHASYSTLHAGDINQMVYRLESEPLKVPRSMLQFLDIALVQTMWVRGNTRLRRTKEVNEILGIDPVDKNLLVNQFVKWDPKEDKHIEVSMPKKLEKMADFLGVSVQEVYDEMLSRKRYLELMLKRGIRNYKEVTRYIHAYYRNPELAMTKMEEGL | soluble
MHIDNIENLSDREFDYIVVGGGSAGAAVAARLSEDPAVSVALVEAGPDDRGVPEVLQLDRWMELLESGYDWDYPIEPQENGNSFMRHARAKVMGGCSSHNSCIAFWAPREDLDEWEAKYGATGWNAEAAWPLYKRLETNEDAGPDAPHHGDSGPVHLMNVPPKDPTGVALLDACEQAGIPRAKFNTGTTVVNGANFFQINRRADGTRSSSSVSYIHPIVEQENFTLLTGLRARQLVFDADRRCTGVDIVDSAFGHTHRLTARNEVVLSTGAIDTPKLLMLSGIGPAAHLAEHGIEVLVDSPGVGEHLQDHPEGVVQFEAKQPMVAESTQWWEIGIFTPTEDGLDRPDLMMHYGSVPFDMNTLRHGYPTTENGFSLTPNVTHARSRGTVRLRSRDFRDKPMVDPRYFTDPEGHDMRVMVAGIRKAREIAAQPAMAEWTGRELSPGVEAQTDEELQDYIRKTHNTAYHPVGTVRMGAVEDEMSPLDPELRVKGVTGLRVADASVMPEHVTVNPNITVMMIGERCADLIRSARAGETTTADAELSAALA | soluble
MSLKADPRGTGSRTPGTATGGKTVPTVPPAPTADRRTTVDVTALLERGRTLATPVLRAAVDRLAPPMDTVAAYHFGWIDAQGNPADGDGGKAVRPALAVLSAEVTGAAPEVGVPGAVAVELVHNFSLLHDDLMDGDEQRRHRDTVWKVHGPAQAILVGDALFALANEVLLELGTVEAGRATRRLTKASRSLIDGQAQDISYEHRDRVSVEECLEMEGNKTGALLACASSIGAVLGGADERTADTLEKYGYHLGLAFQAVDDLLGIWGDPDATGKQTWSDLRQRKKSLPVVAALAAGGAASERLGEILTADAKASDFANFSEEEFAARAALIEEAGGREWTADEARRQHTIAIEALDAVDMPDRVRDRFTALADFVVVRKREGHHHHHH | soluble
MGHHHHHHSHMAGAAEDARALFRAGVCAALEAWPALQIAVENGFGGVHSQEKAKWLGGAVEDYFMRNADLELDEVEDFLGELLTNEFDTVVEDGSLPQVSQQLQTMFHHFQRGDGAALREMASCITQRKCKVTATALKTARETDEDEDDVDSVEEMEVTATNDGAATDGVCPQPEPSDPDAQTIKEEDIVEDGWTIVRRKK | soluble
MAHSQVGIQLISESTEKTLAELIALCAEHNIIHNEKSPLALVQTDDRLELRKLDEPKLGAVYVDFVGGTMAHRRKFGGGRGEAVAKAVGIKGSALPTVIDATAGLGRDAFVLAAIGCQVRLVERHPVVFLLLQDGLNRAYQDEEIGEMLQQNLHLLNVQHINELDPNSDYADVVYLDPMYPHKQKSALVKKEMRVFQHLVGADLDADELLLPALQLAKKRVVVKRPDYAEFLCGKQPHFSHETKNHRFDIYMGASQC | soluble
MISVFDIFKVGIGPSSSHTVGPMKAAKQFVDELSEHKLLAKTDRLVADVYGSLSLTGRGHSTDIAIVMGLMGYLPDNVDIERIDSVIQQVKQEHKLVLAEANPAETKIIDFDFYNDMPFHSTFLARHENGMTLKAFAGETLLYEKTFYSIGGGFIVDDEHFEQ | not soluble
MDVLVTAGGTSEPIDNVRSITNHSSGGLGKAIAESFLAAGHTVTYVTTKHALRPTQQLDLSIKEIETTVELATTLEQLFAEKQFDAIVHAMAVSDFTTETAQTEEQFIDSFAQQLSEQTLPKTKEALVTIVQNTLNQIADIPQTATKISSDTDRLLIFLKKNPKVIQMIRDKQPQTVLVGFKLLVNVSQEELVQVAQAALVKNRCDFVLANDLMNVHETEHKGLLINETGIVQEAYSKQGIGSMIVKNVEKKWREQQ | not soluble
KREHAKQHGMIRTEITGAEIAEEMEKERRLFQLQMCEYLIKVNEIKTKKGVDLLQNLIKYYHAQCNFFQDGLKTADKLKQYIEKLAADLYNIKQTQDEEKKQLTALRDLIKSSLQLDQKESRRDSQSRQGGYSMHQLQGNKEYGSEKKGYLLKKSDGIRKVWQRRKCSVKNGILTISHATSNRQPAKLNLLTCQVKPNAEDKKSFDLISHNRTYHFQAEDEQDYVAWISVLTNSKEEALTMAFRGEQSAGENSLEDLTKAIIEDVQRLPGNDICCDCGSSEPTWLSTNLGILTCIECSGIHREMGVHISRIQSLELDKLGTSELLLAKNVGNNSFNDIMEANLPSPSPKPTPSSDMTVRKEYITAKYVDHRFSRKTCSTSSAKLNELLEAIKSRDLLALIQVYAEGVELMEPLLEPGQELGETALHLAVRTADQTSLHLVDFLVQNCGNLDKQTALGNTVLHYCSMYSKPECLKLLLRSKPTVDIVNQAGETALDIAKRLKATQCEDLLSQAKSGKFNPHVHVEYEWNLRQEEIDESDDDLDDKPSPIKKERSPRPQSFCHSSSISPQDKLALPGFSTPRDKQRLSYGAFTNQIFVSTSTDSPTSPTTEAPPLPPRNAGKGPTGPPSTLPLSTQTSSGSSTLSKKRPPPPPPGHKRTLSDPPSPLPHGPPNKGAVPWGNDGGPSSSSKTTNKFEGLSQQSSTSSAKTALGPRVLPKLPQKVALRKTDHLSLDKATIPPEIFQKSSQLAELPQKPPPGDLPPKPTELAPKPQIGDLPPKPGELPPKPQLGDLPPKPQLSDLPPKPQMKDLPPKPQLGDLLAKSQTGDVSPKAQQPSEVTLKSHPLDLSPNVQSRDAIQKQASEDSNDLTPTLPETPVPLPRKINTGKNKVRRVKTIYDCQADNDDELTFIEGEVIIVTGEEDQEWWIGHIEGQPERKGVFPVSFVHILSD | soluble
MIELKHLRTLQALRNTGSLAAAATQLHQTQSALSHQFSDLEQRLGFRLFVRKSQPLRFTTQGEILLQLAEQVLPQIKQALQTCNEPHQTALRIAIECHSCIQWLTPALDNFHKHWPQVTMDFKSGVTFDPQPALQQGELDLVLTSDILPRSGLHYSPMFDFEVRLVLAPDHPLANKDRIEPEDLAPEVLMIYPVQRQRLDVWRHFLQPAGVSPSSKNVDNTLLLIQMVSARMGIAALPHWVVESFERQGLVVTKTLGEGLWSRLYAAVRDGEQRQPVTEAFIRSARQHACDHLPFVKDAVRSNAGVPTAKPLSPQLQ | not soluble
MGSSHHHHHHSSGLVPRGSHMIRNRVMNSVVNKYLLHNRSIMFKNDQDVERFFYKREIENRKKHKQPSTLNVKANLEKLSLDDMQVFRFNFRHQIDKKILYIHGGFNALQPSPFHWRLLDKITLSTLYEVVLPIYPKTPEFHIDDTFQAIQRVYDQLVSEVGHQNVVVMGDGSGGALALSFVQSLLDNQQPLPNKLYLISPILDATLSNKDISDALIEQDAVLSQFGVNEIMKKWANGLPLTDKRISPINGTIEGLPPVYMFGGGREMTHPDMKLFEQMMLQHHQYIEFYDYPKMVHDFPIYPIRQSHKAIKQIAKSIDEDVTQNN | soluble
MTATPEVQKSIEEVYTKLQGASDCSSLLKKHLTKDVVAKNKSKKTRLGATLLDVIQSGGENLDSGVGIYAPDAESYTLFADLFNPVIEEYHNGFKATDTQPAMDLGEKNVGELADLDPEGKFIVSTRIRCGRSLQGYPFNPCLSETNYKMMETRMKEIFNSITDPELKGTYYPLTGMDEETKKKLIADHFLFKEGDRFLKAANANRYWPNGRGIFHNEKKTFLVWVNEEDHLRIISMQNGGNVGEVLARLIKGLNLVAAKAPFARHPRLGWLTFCPTNLGTTVRASVHIKLPKISAKDDFKKICSDMKLQIRGIHGEHSESKEGIYDISNKQRLGLTEYQAVRQMYDGLKKLIELEKAAA | not soluble
MADVLTELPGVGPSTADKLIEGGYLDFMKIATATIGELTDIEGISEKAAAKMIMAARDLCDLGFKSGVELLKQRQSVWRLSTGSTELDTVLAGGIESQSVTEFAGMFGSGKTQIMHQTCVNLQMREKIFADLEGVVEEELEAPKAVYIDTEGTFRPERVVQMAEGAGIDGQTVLDNTFVARAYNSDMQMLFAEKIEDLIKGGNNIKLVIIDSLTSTFRNEFTGRGKLAERQQKLGRHMATLNKLADLYNCIVLVTNQVAAKPDAYFGVAEQAIGGHVVGHAATFRFFLRKSKGDKRVAKLYDSPHLPDSEAVFRITEKGIQD | soluble
FFFSGGVPLDASLFEHKKLDPTQVRQVLQLVLWKLESLRQWEKERITGCIQAVAEHLQLKLRDVMPLMFPAITGHASSVSVLDAMEILGADLSRYRLRQALELLGGASKKETKEWEKIRDAIPG | not soluble
MAHHHHHHMSSAVVKPSNGEMPKTKEQKEMKNEYQVETNKELQVNLNFHNNNIISNIFSNLSLFDYLTNIFTINKKTYMLKYCNKLNEDNFYISYFQKENDKFAQISPWHDIDLMNEDGTYNMVVEITKYNYIKLEIQLKENFNVIKQDTKKGKLRYYHNSIYWNYGALPRTYEYPKHIYTCQTGDNQDLFFTGDDDPLDVVDVGQNSLKMGQVVPVKVGSMQSHMTYM | not soluble
MKILPLALFIIPFLAGCGANNTPPQTPIPGEKTSAKLRTLETGAAAIQSRPPVDAISTYLDGFHFYSGDKNGQMEAHHYVTVLNEDVMQAVIYDGNTKNARLMGVEYIISERLFKTLPPEEKKLWHSHQYEVKSGSLVAPGLPQVADKALMSKIVNTYGKTWHTWHTDRDKTLPMGIPALMMGFTGDGQLDPALLADRDRRLGIDTQAIKRERQDLPEHPVVKGANAWEQGEVIQLQRVQGSGEHGRGDTAHFGTSEQSRQ | not soluble
MGLERFNGVRVDDAERALLTCCRSLRWARRVADHRPYPDLDALLAAADEAAYDLAPADLAEALAGESLTLLPDDAYSVAHTALSAAHAAYESRFGHVFVICLDNAPPGEALDQVLAGIRSRLTNDREEERVLAAEELRRLARGRLARLVRDFSPRPALQRTPLEHHHHHH | not soluble
GPGSMSVSATPYKRQDAITAKTVLLGESAVGKSSIALRFARNEFSSNQETTIGAAFLSRSVTVSATSQSGGGGAVANAASGTIKFEIWDTAGQERYRSLAPIYYRGACGALVVYDITSAESLKKAQMWMRELRANADPTLLIILVGNKKDMESLRQVSYEDGAAVAQEEDVNGFFEVSAKENVNVEEVFAKLARLLLEHGLGANSGPGSLSGPRGAQRLEPPTRQQKKEGGCAC | not soluble
MKVTVHAKNIELTNALKDCVEKKISKLSKYFEPGVEAKATLSVEKNKQIVEIMIPFNGILLRGEESTDDMYKSIDLVEEKIERQIRKQKTRLSKKNRYDSLRFAHIDPIEDMKEEKEAKIVKTKRFDVKPMGAEEAVLQMELIGHDFFVFQDPETNQLNVVYKRKDGNYGLIEPGLGEELEHHHHHH | soluble
GMTISRNYDQEIKDTAGHKYAYNFDFDVMHPFMVRAFTPFFRPGNLLELGSFKGDFTSRLQEHFNDITCVEASEEAISHAQGRLKDGITYIHSRFEDAQLPRRYDNIVLTHVLEHIDDPVALLKRINDDWLAEGGRLFLVCPNANAVSRQIAVKMGIISHNSAVTEAEFAHGHRCTYALDTLERDASRAGLQVTYRSGIFFKALANFQWDQILQTDILSKEYLDGCYQLGQQYPDLCASIFLLCEKGINQ | soluble
